According to patent US8865473B2, “Luminescence detecting apparatuses and methods” (Applied Biosystems, LLC, priority 1999, dated 2014):

Target: T1, Orexin 2 Receptor (Homo sapiens, UniProt O43614)
T1 construct: host or cells: CHO cells co-expressing aequorin (CHO-Aeq-OX2-A2)
T1 sequence (O43614 1-444): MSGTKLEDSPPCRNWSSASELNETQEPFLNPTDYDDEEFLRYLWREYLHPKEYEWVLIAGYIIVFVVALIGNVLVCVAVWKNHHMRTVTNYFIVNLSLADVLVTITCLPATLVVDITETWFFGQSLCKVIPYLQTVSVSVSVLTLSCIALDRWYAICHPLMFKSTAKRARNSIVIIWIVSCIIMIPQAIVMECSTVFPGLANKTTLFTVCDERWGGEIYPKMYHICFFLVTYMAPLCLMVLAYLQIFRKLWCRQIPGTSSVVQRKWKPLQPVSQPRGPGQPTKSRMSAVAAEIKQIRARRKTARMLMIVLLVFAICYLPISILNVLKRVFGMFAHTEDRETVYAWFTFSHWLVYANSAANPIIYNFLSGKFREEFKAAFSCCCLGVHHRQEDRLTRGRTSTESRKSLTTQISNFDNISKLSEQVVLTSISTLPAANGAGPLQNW
Experiment: Aequorin luminescence agonist assay in CHO-Aeq-OX2-A2 cells on NorthStar
Type: cell-based
Settings: coelenterazine h +/- 0.6 μM BAPTA-AM 4 hours, light integrated 20 seconds, unchanged in the presence of BAPTA-AM, read-out: reported EC50 for Orexin B
Experimental: CHO-Aeq-OX2-A2 cells (Euroscreen) were loaded with coelenterazine h+/−0.6 μM BAPTA-AM for 4 hours. The peptide agonist Orexin B was injected into the wells, and the emitted light was integrated for 20 seconds on the NorthStar™.

- EC50: 750 pM
Substance: Orexin B
